Earlier results in PMC8689690.
pKd: −log10 of the molar value.

Biological target: IL-28R1 (Homo sapiens) (UniProt Q8IU57)
Test: ELISA

Chain of UniProt Q8IU57 (Q8IU57 21-228): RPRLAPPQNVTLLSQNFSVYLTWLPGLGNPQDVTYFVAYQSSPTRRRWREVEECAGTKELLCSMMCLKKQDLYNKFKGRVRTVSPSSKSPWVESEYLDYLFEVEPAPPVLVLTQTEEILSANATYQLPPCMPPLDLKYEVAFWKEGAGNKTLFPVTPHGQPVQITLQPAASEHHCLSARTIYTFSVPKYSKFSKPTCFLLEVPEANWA

pKd	Substance
7.82	IFNL1 (from UniProt Q8IU54)
7.19	IFNL3 (from UniProt Q8IZI9)
